Source: paper PMC7820984
Positions count from the first letter of the chain named.

T1: MBP-WRKY21 (Oryza sativa, UniProt Q5FZT4 1-280)
T1 sequence: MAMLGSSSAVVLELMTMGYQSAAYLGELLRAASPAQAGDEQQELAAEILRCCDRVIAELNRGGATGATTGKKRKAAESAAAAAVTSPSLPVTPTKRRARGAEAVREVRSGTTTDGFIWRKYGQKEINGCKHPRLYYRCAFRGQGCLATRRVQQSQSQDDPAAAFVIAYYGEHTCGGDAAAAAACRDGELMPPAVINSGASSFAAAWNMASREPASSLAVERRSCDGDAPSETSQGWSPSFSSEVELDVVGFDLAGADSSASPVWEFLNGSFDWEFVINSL

B1: F2 (Wz and Wy W-boxes) (dsDNA)
DNA 1: TTTTAATAGATGACGCCGTTGACTTTTTCTTACATATTTGACCATTCGTCTTATCCAAAA
DNA 2: TTTTGGATAAGACGAATGGTCAAATATGTAAGAAAAAGTCAACGGCGTCATCTATTAAAA
B2: F2-m (Wz and Wy mutated) (dsDNA)
DNA 1: B1 DNA 1 with C23A, C42A
DNA 2: B1 DNA 2 with G19T, G38T

Molecular target: T1, MBP-WRKY21
Test: EMSA

| Binder | binding result |
| --- | --- |
| B1 | binds |
| B2 | no binding |
